In patent publication US20160200815A1 (JOUNCE THERAPEUTICS, published 2016):
Positions count from the first letter of the chain named. Blank lines part the entries; values can stand above or below the binder they belong to.

Legend:
Experiment in all cases: ELISA, construct coated on plate
hTIM3-Fc WT = biological target: T1, hTIM3-Fc WT (human)
T1 construct: also called hTIM-3-hFc

hTIM3-Fc murine BC loop = biological target: T2, hTIM3-Fc murine BC loop (human, BC loop replaced by mouse TIM-3)
T2 construct: Whole construct: chimeric ECD, linker and human IgG1 Fc; also called hTIM3-Fc BC loop chimera

hTIM3-Fc murine CC′ loop = biological target: T3, hTIM3-Fc murine CC′ loop (human, CC′ loop replaced by mouse TIM-3)
T3 construct: Whole construct: chimeric ECD, linker and human IgG1 Fc; also called hTIM3-Fc CC′ loop chimera

hTIM3-Fc murine FG loop = biological target: T4, hTIM3-Fc murine FG loop (human, FG loop replaced by mouse TIM-3)
T4 construct: Whole construct: chimeric ECD, linker and human IgG1 Fc; also called hTIM3-Fc FG loop chimera

hTIM3-Fc murine DE loop = biological target: T5, hTIM3-Fc murine DE loop (human, DE loop replaced by mouse TIM-3)
T5 construct: Whole construct: chimeric ECD, linker and human IgG1 Fc; also called hTIM3-Fc DE loop chimera

[1] = biological target: T6, hTIM3-Fc murine C′C″ loop (human, C′C″ loop replaced by mouse TIM-3)
T6 construct: Whole construct: chimeric ECD, linker and human IgG1 Fc; also called hTIM3-Fc C′C″ loop chimera

Absorbance at 450 nm (hTIM3-Fc WT): 1.39 A450 | Absorbance at 450 nm (hTIM3-Fc murine BC loop): 1.3 A450 | Absorbance at 450 nm (hTIM3-Fc murine CC′ loop): 0.247 A450 | Absorbance at 450 nm (hTIM3-Fc murine FG loop): 1.53 A450
B1: mAb48 (antibody, V domains shown)
VH: QIQLQQSGPELVTPGTSVKISCKASGYTFTDYYINWVKQRPGQGLEWIGWIYPGSGNTKYNEKFKGKATLTVDTSSSIAYMHLSSLTSEDSAVYFCAGDRFDYWGQGTTLTVSS
VL: QIVLTQSPAIMSASPGEKVTLTCSASSGVSSSYLYWYQQKPGSSPKLWIYSTSNLASGVPARFSGSGSGTSYSLTISNMETEDAASYFCHQWSNSPYTFGGGTKLEIK
notes: Mouse hybridoma antibody

Absorbance at 450 nm (hTIM3-Fc murine DE loop): 1.29 A450
B2: mAb15 (antibody, V domains shown)
VH: QVQLKESGPGLVAPSQSLSITCTVSGFSLTGYGVTWVRQPPGKGLEWLGMIWGDGNTDYNSGLKSRLNISKDNSKSQVFLKMNSLQTDDTARYYCARSYYYGPPDYWGQGTTLTVSS
VL: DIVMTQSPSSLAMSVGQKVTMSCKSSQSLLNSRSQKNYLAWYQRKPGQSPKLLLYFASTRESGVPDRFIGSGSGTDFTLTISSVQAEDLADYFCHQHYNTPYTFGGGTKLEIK
notes: also called JTx mAb 15; TIM-3 mAb15

Absorbance at 450 nm (hTIM3-Fc WT): 2.13 A450 | Absorbance at 450 nm (hTIM3-Fc murine BC loop): 2.06 A450 | Absorbance at 450 nm (hTIM3-Fc murine CC′ loop): 0.91 A450 | Absorbance at 450 nm (hTIM3-Fc murine FG loop): 2.22 A450
B3: mAb22 (antibody, V domains shown)
VH: EVQLVESGGDLVKPGGSLKLSCAASGFTFSNHGMSWVRQTPDKRLEWVATISSGGSNTYFPDSVKGRFTISRDNVKNSLYLQMSSLKSEDTAMYYCARHGTSMIKEWFAYWGQGTLVTVSA
VL: DIVMTQSPVTLSVTPGDRVSLSCRASQSIGDYLHWYQQKSHESPRLLIKYASQSISGIPSRFSGSGSGSDFTLNINSVEPEDVGVYYCQHSHSFPPTFGGGTRLEIK
notes: Mouse hybridoma antibody

Absorbance at 450 nm (hTIM3-Fc WT): 1.39 A450 | Absorbance at 450 nm (hTIM3-Fc murine BC loop): 1.83 A450 | Absorbance at 450 nm (hTIM3-Fc murine CC′ loop): 1.39 A450 | Absorbance at 450 nm [1]: 0.338 A450 | Absorbance at 450 nm (hTIM3-Fc murine DE loop): 0.855 A450 | Absorbance at 450 nm (hTIM3-Fc murine FG loop): 1.9 A450
B4: mAb58 (antibody, V domains shown)
VH: QIQLVQSGPELKKPGETVKISCKASGYTFTTYGMSWVKQAPGKGLKLMGWINTYSGAPTYADDFKGRFAFSLETSASAAYLQINNLKNEDTATYFCARKPPHYYVNSFDYWGQGTTLTVSS
VL: B3 VL with V9A, G30S, N74S, H90N, S91G, P96Y, R103K

Absorbance at 450 nm (hTIM3-Fc WT): 1.57 A450 | Absorbance at 450 nm (hTIM3-Fc murine BC loop): 1.44 A450 | Absorbance at 450 nm (hTIM3-Fc murine CC′ loop): 0.502 A450 | Absorbance at 450 nm (hTIM3-Fc murine DE loop): 1.01 A450 | Absorbance at 450 nm (hTIM3-Fc murine FG loop): 1.74 A450
B5: mAb91 (antibody, V domains shown)
VH: DVQFQESGPGLVKPSQSLSLTCSVTGYSITSGYYWNWIRQFPGNKLEWMGYISYDGSNNYNPSLKNRISITRDTSKNQFFLKLNSVTTEDTATYYCGRDGPYYYGSSYGYFDVWGTGTTVTVSS
VL: DIVMTQAESSVPVTPGESVSISCRSSKSLLHSNGNTYLYWFLQRPGQSPQLLIHRMSNLASGVPDRFSGSGSGTAFTLRISRVEAEDMGVYYCMQHLEYPCTFGGGTKLEIK
notes: Mouse hybridoma antibody
